In publication PMC4264766, “Purification, Cloning, Characterization, and N-Glycosylation Analysis of a Novel β-Fructosidase from Aspergillus oryzae FS4 Synthesizing Levan- and Neolevan-Type Fructooligosaccharides” (PLoS ONE, 2014):

Substrate: OC[C@H]1O[C@@](CO)(O[C@H]2O[C@H](CO)[C@@H](O)[C@H](O)[C@H]2O)[C@@H](O)[C@@H]1O
Assay: initial rates, glucose release by glucose assay kit, confirmed by HPLC; Michaelis-Menten fit
Type: biochemical, Aspergillus oryzae
Conditions: total activity (glucose release), 55°C, potassium phosphate buffer, 0.005–0.5 M sucrose
Source text: initial rates, glucose release by glucose assay kit, confirmed by HPLC; Michaelis-Menten fit on N.BfrA (native β-fructosidase BfrA)

B1: N.BfrA (native β-fructosidase BfrA) (Aspergillus oryzae) (protein)
chain: IDYNAAPPNLSTLANGSLYDTWRPRAHILPPNGRIGDPCGHYTDPDTGLFHVGFLYNGSGIAGATTDDMVRFRDLNPNGSQFIMPGGKNDPVAVFDGSVIPKGIDDKPTLLYTSVTSLPIHWSIPYNPGAETQSLAVTSNGGRNFTKLDRPPVIPLPPSDSDVTAFRDPYAFQSPELDAAADSAPGTWYTAISGGVHEDGPGQFLYRQDQKEMSLESWEYLGLWWQEKVNTTWGNGDWAGGWGFNFETGNVFGLNEEGYSVDGEMFMTLGTEGSGTPIVSQVSSIHDMLWAAGNVSNNGNVTFTPTMAGVFDWGASGYAAAGHILPATSQVSTKSGAPDRFISFVWLTGDLFEQAKGYPTSQQNWVGTLLLPRELHIKTISNVVDNELAREEGSSWRVERGQSGIELKTLGIDIARETREALMSGPKITEPERTSKEAGLVPFQVSPTTKFHVLTAQLSFPRSARNSDLQAGFQVLSSDLESTTIYYQFSNESIIVDRSNTSAAAKTTNGIVSTNESGRLRLFDLQGDAQEIETLDLTVVVDNSVLEIYANGRFALSTWARSWYKNSTDIKFYHNGAGEVTFSNVTVSEGLFEAWPERV
notes: native, purified from A. oryzae FS4 mycelia; N-glycosylated; 95 kDa by SDS-PAGE, monomer; CDS 1860 bp; mature 65298 Da calculated; 40 kDa contaminant band
In the case of B1, the Km is reported as 37.19 ± 5.28 mM, the Vmax is reported as 1.28e+08 µM/min/mg and the kcat is reported as 10000 ± 390 s⁻¹. The kcat/Km was 269000 ± 39700 M⁻¹ s⁻¹.
